This is an account of results in paper PMC10296094 (2023).

Experiment [1] addresses fluorescein-labelled PMCA peptide (Bos taurus (Bovine), UniProt D3K0R6, fluorescein attached to the C-terminal native Lys). Kind of experiment: fluorescence polarisation/anisotropy; Ca2+ (1 mM CaCl2).
Experiment [2] concerns the target fluorescein-labelled CaMKII peptide (Homo sapiens (Human), UniProt Q9UQM7, fluorescein attached to the non-native cysteine added to the N-terminus). The experiment is described as above.

fluorescein-labelled PMCA peptide, sequence (D3K0R6 1086-1105): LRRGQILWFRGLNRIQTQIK
fluorescein-labelled CaMKII peptide, sequence (Q9UQM7 other isoform, or with tags, fused parts or gaps): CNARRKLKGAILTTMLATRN

B1: His6-tagged human centrin1 (protein)
chain: MASGFKKPSAASTGQKRKVAPKPELTEDQKQEVREAFDLFDVDGSGTIDAKELKVAMRALGFEPRKEEMKKMISEVDREGTGKISFNDFLAVMTQKMSEKDTKEEILKAFRLFDDDETGKISFKNLKRVANELGENLTDEELQEMIDEADRDGDGEVNEEEFLRIMKKTSLY
In the case of B1, the binding result in experiment [1] and in experiment [2] was “no binding” in each case.
